Test results taken from publication PMC4871749 (Nature chemical biology, 2016).
No end group written: not given here. *: point of attachment. Crotonyl(E) = C/C=C/C(=O)*

T1: Taf14 YEATS domain, Taf14 (1-132), uniformly 15N-labeled (yeast, UniProt P35189 1-132)
T1 sequence (looked up): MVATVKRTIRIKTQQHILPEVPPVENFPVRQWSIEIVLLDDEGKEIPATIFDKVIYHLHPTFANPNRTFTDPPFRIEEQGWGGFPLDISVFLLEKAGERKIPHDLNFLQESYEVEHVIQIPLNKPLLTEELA

T2: Taf14 YEATS domain (residues 1-137) (yeast, UniProt P35189 1-137)
T2 sequence (looked up): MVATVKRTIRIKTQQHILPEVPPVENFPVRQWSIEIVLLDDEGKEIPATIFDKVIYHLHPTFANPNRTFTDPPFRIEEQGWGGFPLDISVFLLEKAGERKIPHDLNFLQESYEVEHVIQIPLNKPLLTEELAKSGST


Experiments:
[1] = molecular target: Taf14 YEATS domain (construct of the fluorescence assay) (yeast) (UniProt P35189); test: other fluorescence titration
[2] = molecular target: T1, Taf14 YEATS domain, Taf14 (1-132), …; test: NMR titration
[3] = molecular target: T2, Taf14 YEATS domain (residues 1-137); test: crystal structure

Kd [1] [µM]	binding result [2]	binding result [3]	Molecule
9.5	–	–	H3K9cr5-13 peptide (residues 5-13 of H3, crotonylated at lysine 9) (from UniProt P61830 6-14)
–	binds	–	QTARK(Ac)STGG (peptide, UniProt P61830 6-14, looked up) [H3K9ac5-13 peptide (residues 5-13 of H3, acetylated at lysine 9)]
–	binds	binds	QTARK(Crotonyl(E))STGG (peptide, UniProt P61830 6-14, looked up) [H3K9cr5-13 peptide (residues 5-13 of H3, crotonylated at lysine 9)]
